The RNAGym collection of RNA variant scans (doi:10.7554/elife.80360)

B1: CPEB3 Ribozyme (parent)
chain: GGGGGCCACAGCAGAAGCGUUCACGUCGCGGCCCCUGUCAGAUUCUGGUGAAUCUGCGAAUUCUGCUGU

Variants of: B1
Assay: self-cleavage, relative activity (ratio to wild type); higher = more cleavage; co-transcriptional

Variant	self-cleavage
GGGGGCCAAAGCACAAGCGUUCACGUCGCGGCCCCUGUCAGAUUCUGGUGAAUCUGCGAAUUCUGCUGU [C9A G14C]	0.513
GGGGGCCAAAGCAGAAGCGUUCACGUCGCGGUCCCUGUCAGAUUCUGGUGAAUCUGCGAAUUCUGCUGU [C9A C32U]	1.01
GGGGGCCAAAGCAGAAGCGUUCACGUCGCGGCCACUGUCAGAUUCUGGUGAAUCUGCGAAUUCUGCUGU [C9A C34A]	1.01
GGGGGCCAAAGCAGAAGCGUUCACGUCGCGGCCUCUGUCAGAUUCUGGUGAAUCUGCGAAUUCUGCUGU [C9A C34U]	1.04
GGGGGCCAAAGCAGAAGCGUUCACGUCGCGGCCCCUGUCAAAUUCUGGUGAAUCUGCGAAUUCUGCUGU [C9A G41A]	0.988
GGGGGCCAAAGCAGAAGCGUUCACGUCGCGGCCCCUGUCACAUUCUGGUGAAUCUGCGAAUUCUGCUGU [C9A G41C]	0.906
GGGGGCCAAAGCAGAAGCGUUCACGUCGCGGCUCCUGUCAGAUUCUGGUGAAUCUGCGAAUUCUGCUGU [C9A C33U]	1.03
GGGGGCCAAAGCAGAAGCGUUCACGUCGCGGCACCUGUCAGAUUCUGGUGAAUCUGCGAAUUCUGCUGU [C9A C33A]	0.993
GGGGGCCAAAGCAGAAGCGUUCACGUCGCGGCGCCUGUCAGAUUCUGGUGAAUCUGCGAAUUCUGCUGU [C9A C33G]	0.962
GGGGGCCAAAGCAGAAGCGUUCACGUCGCGGCCCCUGUCAGAUUCUGGUGAAUCUGCAAAUUCUGCUGU [C9A G58A]	1.02
GGGGGCCAAAGCAGAAGCGUUCACGUCGCGGCCCCUGUCAGAUUCUGGUGAAUAUGCGAAUUCUGCUGU [C9A C54A]	1
GGGGGCCAAAGCAGAAGCGUUCACGUCGCGGCCCCUGUCAGAUUCUGGUGAAUGUGCGAAUUCUGCUGU [C9A C54G]	1.01
GGGGGCCAAAGCAGAAGCGUUCACGUCGCGGCCCCUGUCAGAUUCUGGUGAAUUUGCGAAUUCUGCUGU [C9A C54U]	1.03
GGGGGCCAAAGCAGAAGCGUUCACGACGCGGCCCCUGUCAGAUUCUGGUGAAUCUGCGAAUUCUGCUGU [C9A U26A]	0.946
GGGGGCCAAAGCAGAAGCGUUCACGCCGCGGCCCCUGUCAGAUUCUGGUGAAUCUGCGAAUUCUGCUGU [C9A U26C]	0.983
GGGGGCCAAAGCAGAAGCGUUCACGUCGCGGCCCCUGUCAGAUUCUGGUGAAUCUGCGAACUCUGCUGU [C9A U61C]	0.863
GGGGGCCAAAGCAGAAGCGUUCACGUCGCGGCCCCUGUCAGAUUCUGGUGAAUCUGCGAAGUCUGCUGU [C9A U61G]	0.86
GGGGGCCAAAGCAGAAGCGUUCACGUCGCGGCCCCUGUCAGAUUCUGGUGAAUCUGCGAAAUCUGCUGU [C9A U61A]	0.988
GGGGGCCAAAGCAGAAGCGUUCACGUCGCGGCCCCUAUCAGAUUCUGGUGAAUCUGCGAAUUCUGCUGU [C9A G37A]	0.397
GGGGGCCAAAGCAGAAGCGUUCACGUCGCGGCCCCUCUCAGAUUCUGGUGAAUCUGCGAAUUCUGCUGU [C9A G37C]	0.242
GGGGGCCAAAGCAGAAGCGUUCACGUCGCGGCCCCUGUCAGAUUCUGGCGAAUCUGCGAAUUCUGCUGU [C9A U49C]	0.989
GGGGGCCAAAGCAGAAGCGUUCACUUCGCGGCCCCUGUCAGAUUCUGGUGAAUCUGCGAAUUCUGCUGU [C9A G25U]	0.181
GGGGGCCAAAGCAGAAGCGUUCACAUCGCGGCCCCUGUCAGAUUCUGGUGAAUCUGCGAAUUCUGCUGU [C9A G25A]	0.264
GGGGGCCAAAGCAGAAGCGUUCACGUCGGGGCCCCUGUCAGAUUCUGGUGAAUCUGCGAAUUCUGCUGU [C9A C29G]	0.854
GGGGGCCAAAGCAGAAGCGUUCACGUCGCGGCCCAUGUCAGAUUCUGGUGAAUCUGCGAAUUCUGCUGU [C9A C35A]	0.423
GGGGGCCAAAGCAGAAGCGUUCACGUCGCGGCCCGUGUCAGAUUCUGGUGAAUCUGCGAAUUCUGCUGU [C9A C35G]	0.72

Variant	self-cleavage
GGGGGCCAAAGCAGAAGCGUUCACGUCGCGGCCCUUGUCAGAUUCUGGUGAAUCUGCGAAUUCUGCUGU [C9A C35U]	1.03
GGGGGCCAAAGCAGAAGCGUUCACGUCGCGGCCCCUGUCAGAUUCUGGUGAAUCAGCGAAUUCUGCUGU [C9A U55A]	0.981
GGGGGCCAAAGCAGAAGCGUUCACGUCGCGGCCCCUGUCAGAUUCUGGUGAAUCUGCGAAUUCAGCUGU [C9A U64A]	0.94
GGGGGCCAAAGCAGAAGCGUUCACGUCGCGGCCCCUGUGAGAUUCUGGUGAAUCUGCGAAUUCUGCUGU [C9A C39G]	1
GGGGGCCAAAGCAGAAGCGUUCACGUCGCGGCCCCUGUAAGAUUCUGGUGAAUCUGCGAAUUCUGCUGU [C9A C39A]	0.942
GGGGGCCAAAGCAGAAGCGUUCACGUUGCGGCCCCUGUCAGAUUCUGGUGAAUCUGCGAAUUCUGCUGU [C9A C27U]	0.695
GGGGGCCAAAGCAGAAGCGUUCACGUCGCGGCCCCUGUCAGAAUCUGGUGAAUCUGCGAAUUCUGCUGU [C9A U43A]	0.967
GGGGGCCAAAGCAGAAGCGUUCACGUCGCGGCCCCUGUCAGAGUCUGGUGAAUCUGCGAAUUCUGCUGU [C9A U43G]	0.876
GGGGGCCAAAGCAGAAGCGUUCACGUCGCGGCCCCUGUCAGAUUCUGGUGAAUCUACGAAUUCUGCUGU [C9A G56A]	1.02
GGGGGCCAAAGCAGAAGCGUUCACGUCGCGGCCCCUGUCAGAUUUUGGUGAAUCUGCGAAUUCUGCUGU [C9A C45U]	1.01
GGGGGCCAAAGCAGAAGCGUUCACGUCGCGGCCCCUGUCAGAUUAUGGUGAAUCUGCGAAUUCUGCUGU [C9A C45A]	1.02
GGGGGCCAAAGCAGAAGCGUGCACGUCGCGGCCCCUGUCAGAUUCUGGUGAAUCUGCGAAUUCUGCUGU [C9A U21G]	0.774
GGGGGCCAAAGCAGAAGCGUCCACGUCGCGGCCCCUGUCAGAUUCUGGUGAAUCUGCGAAUUCUGCUGU [C9A U21C]	0.985
GGGGGCCAAAGCAGAAGCGUUCACGUCGCGGCCCCUGUCAGAUUCUGGUGAAUCUGCGAAUUUUGCUGU [C9A C63U]	0.985
GGGGGCCAAAGCAGAAGCGUUCACGUCGCGGCCCCUGUCAGAUUCUGGUGAAUCUGCGAAUUCUGAUGU [C9A C66A]	0.905
GGGGGCCAAAGCAGAAGCGUUCACGUCGCGGCCCCUGUCAGAUUCUGGUGAAUCUGCGAAUUCUGGUGU [C9A C66G]	0.923
GGGGGCCAAAGCAGAAGCGUUCACGUCGCGGCCCCUGCCAGAUUCUGGUGAAUCUGCGAAUUCUGCUGU [C9A U38C]	1.03
GGGGGCCAAAGCAGAAGCGUUCACGUCGCGGCCCCUGUCAGAUUCUGGUGAAUCUGCGAAUUCUCCUGU [C9A G65C]	0.627
GGGGGCCAAAGCAGAAGCAUUCACGUCGCGGCCCCUGUCAGAUUCUGGUGAAUCUGCGAAUUCUGCUGU [C9A G19A]	0.129
GGGGGCCAAAGCAGAAGCCUUCACGUCGCGGCCCCUGUCAGAUUCUGGUGAAUCUGCGAAUUCUGCUGU [C9A G19C]	0.111
GGGGGCCAAAGCAGAAGCUUUCACGUCGCGGCCCCUGUCAGAUUCUGGUGAAUCUGCGAAUUCUGCUGU [C9A G19U]	0.609
GGGGGCCAAAGCAGAAGCGUUCACGUCCCGGCCCCUGUCAGAUUCUGGUGAAUCUGCGAAUUCUGCUGU [C9A G28C]	0.196
GGGGGCCAAAGCAGAAGCGUUCACGUCUCGGCCCCUGUCAGAUUCUGGUGAAUCUGCGAAUUCUGCUGU [C9A G28U]	0.187
GGGGGCCAAAGCAGAAGCGUUCACGUCGCGGCCCCUGUCAGAUUCUGCUGAAUCUGCGAAUUCUGCUGU [C9A G48C]	1.02
GGGGGCCAAAGCAGAAGCGUUCACGUCGCGGCCCCUGUCAGAUUCUGUUGAAUCUGCGAAUUCUGCUGU [C9A G48U]	1.03
GGGGGCCAAAGCAGAAGCGUUCACGUCGCGGCCCCUGUCAGAUUCUUGUGAAUCUGCGAAUUCUGCUGU [C9A G47U]	1.05

Variant	self-cleavage
GGGGGCCAAAGCAGAAGCGUUCACGUCGCGGCCCCUGUCAGAUUCUAGUGAAUCUGCGAAUUCUGCUGU [C9A G47A]	1.03
GGGGGCCAAAGCAGAAGCGUUCACGUCGCGGCCCCUGUCAGAUUCUGGUGAACCUGCGAAUUCUGCUGU [C9A U53C]	0.997
GGGGGCCAAAGCAGAAGCGUUCACGUCGCGGCCCCUGUCAGAUUCUGGUGAAACUGCGAAUUCUGCUGU [C9A U53A]	1.03
GGGGGCCAAAGCAGAAGCGUUCACGUCGCGGCCCCGGUCAGAUUCUGGUGAAUCUGCGAAUUCUGCUGU [C9A U36G]	0.244
GGGGGCCAAAGCAGAAGCGUUCACGUCGCGGCCCCCGUCAGAUUCUGGUGAAUCUGCGAAUUCUGCUGU [C9A U36C]	0.968
GGGGGCCAAAGCAGAAGCGUUCACGUCGCGGCCCCUGUCAGAUACUGGUGAAUCUGCGAAUUCUGCUGU [C9A U44A]	0.998
GGGGGCCAAAGCAGAAGCGUUCACGUCGCGGCCCCUGUCAGAUCCUGGUGAAUCUGCGAAUUCUGCUGU [C9A U44C]	1.02
GGGGGCCAAAGCAGAAGCGUUCACGUCGCGGCCCCUGUCAGAUUCAGGUGAAUCUGCGAAUUCUGCUGU [C9A U46A]	1.02
GGGGGCCAAAGCAGAAGCGUUCACGUCGCGGCCCCUGUCAGAUUCCGGUGAAUCUGCGAAUUCUGCUGU [C9A U46C]	0.996
GGGGGCCAAAGCAGAAACGUUCACGUCGCGGCCCCUGUCAGAUUCUGGUGAAUCUGCGAAUUCUGCUGU [C9A G17A]	0.707
GGGGGCCAAAGCAGAAUCGUUCACGUCGCGGCCCCUGUCAGAUUCUGGUGAAUCUGCGAAUUCUGCUGU [C9A G17U]	0.622
GGGGGCCAAAGCAGAAGCGUUCACGUCGCGGCCCCUGUCAGAUUCUGGUGAAUCUGCGAAUUCUGCUAU [C9A G68A]	1.04
GGGGGCCAAAGCAGAAGCGUUCACGUCGCGGCCCCUGUCAGAUUCUGGUGAAUCUGCGAAUUCUGCUUU [C9A G68U]	1.04
GGGGGCCAAAGCAGAAGCGUUCACGUCGCGGCCCCUGUCAGAUUCUGGUGAAUCUGCGAAUUCUGCUCU [C9A G68C]	1.05
GGGGGCCAAAACAGAAGCGUUCACGUCGCGGCCCCUGUCAGAUUCUGGUGAAUCUGCGAAUUCUGCUGU [C9A G11A]	0.938
GGGGGCCAAACCAGAAGCGUUCACGUCGCGGCCCCUGUCAGAUUCUGGUGAAUCUGCGAAUUCUGCUGU [C9A G11C]	0.935
GGGGGCCAAAUCAGAAGCGUUCACGUCGCGGCCCCUGUCAGAUUCUGGUGAAUCUGCGAAUUCUGCUGU [C9A G11U]	0.973
GGGGGCCAAAGCAGAAGCGAUCACGUCGCGGCCCCUGUCAGAUUCUGGUGAAUCUGCGAAUUCUGCUGU [C9A U20A]	0.0654
GGGGGCCAAAGCAGAAGCGGUCACGUCGCGGCCCCUGUCAGAUUCUGGUGAAUCUGCGAAUUCUGCUGU [C9A U20G]	0.19
GGGGGCCAAAGCAGAAGCGUUCACGUCGCGGCCCCUGUCAGAUUCUGGUGAAUCUGCGAAUACUGCUGU [C9A U62A]	1.01
GGGGGCCAAAGCAGAAGCGUUCACGUCGCGGCCCCUGUCAGAUUCUGGUGAAUCUGAGAAUUCUGCUGU [C9A C57A]	0.37
GGGGGCCAAAGCAGAAGCGUUCACGUCGCGGCCCCUGUCAGAUUCUGGUGAAUCUGUGAAUUCUGCUGU [C9A C57U]	0.423
GGGGGCCAAAGCAGAAGCGUUCACGUCGCGGCCCCUGUCAGAUUCUGGUGAAUCUGGGAAUUCUGCUGU [C9A C57G]	0.366
GGGGGCCAAAGCAGAAGCGUUCACGUCGCUGCCCCUGUCAGAUUCUGGUGAAUCUGCGAAUUCUGCUGU [C9A G30U]	0.846
GGGGGCCAAAGCAGAAGCGUUCACGUCGCCGCCCCUGUCAGAUUCUGGUGAAUCUGCGAAUUCUGCUGU [C9A G30C]	0.953
GGGGGCCAAAGCAGAAGCGUUCACGUCGCAGCCCCUGUCAGAUUCUGGUGAAUCUGCGAAUUCUGCUGU [C9A G30A]	1.01
